Results: PMC12221289, “Armless hairpin-like tRNAs in Romanomermis culicivorax: Evolutionary adaptation of a mitochondrial elongation factor EF-Tu”

Experiments:
Assay in all cases: DRaCALA; GTP; DRaCALA of EF-Tu:GTP:Phe-tRNA ternary complexes, 2 ul spotted on nitrocellulose, n>=3; binding buffer, pH and temperature not in the material
Bta mt-EF-Tu D384K = Bta mt-EF-Tu D384K (Bos taurus, UniProt P49410 44-452, D384K)
Bta mt-EF-Tu D384A = Bta mt-EF-Tu D384A (Bos taurus, UniProt P49410 44-452, D384A)
Bta mt-EF-Tu = Bta mt-EF-Tu (Bos taurus, UniProt P49410 44-452)

B1: Phe-tRNAPhe (canonical) (structured_RNA)
RNA: GCGGAUUUAGCUCAGUUGGGAGAGCGCCAGACUGAAGAUCUGGAGGUCCUGUGUUCGAUCCACAGAAUUCGCACCA
modifications: 3'-aminoacylated with Phe (flexizyme)
Kd (Bta mt-EF-Tu D384K): 76.6 nM | Kd (Bta mt-EF-Tu D384A): 11.5 nM | Kd (Bta mt-EF-Tu): 5.8 nM
